Data reported in the Human Domainome abundance scans (Beltran et al. 2025).
± gives the uncertainty stated by the source.

B1: Zinc finger MYM-type protein 6, residues 427 to 504; numbered along this chain, O95789 (parent)
chain: KLKCQHCNHLFATKPELLFYKGKMFLFCGKNCSDEYKKKNKVVAMCDYCKLQKIIKETVRFSGVDKPFCSEVCKFLSA

Variants of: B1
Assay: abundance fitness (aPCA) (normalised: wild type 0, dead -1); higher = more abundant; growth selection in yeast, the domain comes from the species named
Settings: Homo sapiens

Variant	abundance fitness
G22C	-0.063 ± 0.082
G22D	-0.215 ± 0.5
G22F	-0.254 ± 0.36
G22S	-0.049 ± 0.048
G22T	-0.054 ± 0.049
G22M	-0.118 ± 0.11
G22P	-0.33 ± 0.071
G22E	0.049 ± 0.057
G22V	-0.255 ± 0.047
G22Q	-0.011 ± 0.044
G22L	-0.231 ± 0.056
G22W	-0.226 ± 0.049
G22A	-0.065 ± 0.033
F27W	-0.372 ± 0.049
F27K	-0.727 ± 0.17
F27R	-0.805 ± 0.04
F27E	-0.508 ± 0.051
F27N	-0.512 ± 0.19
F27L	-0.073 ± 0.037
F27I	-0.365 ± 0.15
F27H	-0.405 ± 0.069
F27G	-0.545 ± 0.037
F27M	-0.066 ± 0.043
F27C	-0.025 ± 0.068

Variant	abundance fitness
F27S	-0.459 ± 0.039
F27Q	-0.527 ± 0.054
F27V	-0.161 ± 0.036
F27D	-0.553 ± 0.062
F27T	-0.161 ± 0.04
E16Y	-0.194 ± 0.2
E16W	-0.13 ± 0.031
N40C	-0.135 ± 0.052
N40K	-0.105 ± 0.059
N40A	-0.02 ± 0.064
N40G	-0.086 ± 0.04
N40E	-0.071 ± 0.06
N40D	0.019 ± 0.06
N40H	-0.104 ± 0.057
K39H	-0.078 ± 0.095
K39G	0.005 ± 0.027
K39R	-0.004 ± 0.029
K39V	-0.023 ± 0.044
K39W	-0.099 ± 0.036
K39L	-0.107 ± 0.052
K39A	0.029 ± 0.03
K39T	-0.058 ± 0.057
K39C	-0.163 ± 0.063
K39P	-0.055 ± 0.048

Variant	abundance fitness
K39S	0.003 ± 0.043
K39M	-0.087 ± 0.06
K39Y	0.024 ± 0.25
K39E	-0.012 ± 0.057
K39Q	-0.043 ± 0.047
Y20M	-0.062 ± 0.056
Y20N	-0.059 ± 0.065
Y20H	-0.079 ± 0.053
Y20C	-0.023 ± 0.082
Y20T	0.019 ± 0.037
Y20A	0.031 ± 0.03
Y20Q	-0.01 ± 0.045
Y20K	-0.123 ± 0.046
Y20F	0.054 ± 0.065
Y20R	-0.121 ± 0.03
Y20G	-0.078 ± 0.029
Y20I	0.031 ± 0.1
Y20L	0 ± 0.039
Y20D	-0.033 ± 0.047
L18R	-0.077 ± 0.03
L18P	-0.307 ± 0.039
L18V	-0.02 ± 0.037
L18C	-0.113 ± 0.13
L18G	-0.033 ± 0.032

Variant	abundance fitness
L18A	-0.031 ± 0.036
L18I	-0.159 ± 0.13
L18K	-0.059 ± 0.088
L18T	-0.081 ± 0.04
L18Q	-0.042 ± 0.068
L18W	-0.019 ± 0.031
L26G	0.125 ± 0.029
L26W	-0.053 ± 0.032
L26E	0.118 ± 0.038
L26N	0.097 ± 0.058
L26A	0.05 ± 0.028
L26K	0.09 ± 0.04
L26F	-0.148 ± 0.11
L26P	-0.03 ± 0.04
L26S	0.054 ± 0.032
L26D	-0.066 ± 0.056
L26R	0.089 ± 0.029
L26Q	0.166 ± 0.057
L26M	-0.015 ± 0.056
L26V	0.037 ± 0.031
L26T	0.035 ± 0.048
L26C	0.004 ± 0.071
S33V	-0.054 ± 0.03
S33P	-0.343 ± 0.045

Variant	abundance fitness
S33T	-0.127 ± 0.056
S33M	-0.042 ± 0.037
S33C	-0.077 ± 0.05
S33H	-0.192 ± 0.081
S33L	-0.089 ± 0.05
S33Q	0.017 ± 0.053
S33G	-0.141 ± 0.027
S33R	-0.061 ± 0.03
S33Y	-0.14 ± 0.4
S33F	-0.289 ± 0.12
S33A	-0.032 ± 0.031
S33W	-0.114 ± 0.043
S33D	-0.217 ± 0.049
S33E	-0.025 ± 0.039
C32S	-1.01 ± 0.2
C32D	-0.607 ± 0.074
C32V	-0.919 ± 0.1
C32P	-1.05 ± 0.14
C32T	-1.29 ± 0.23
C32E	-1.01 ± 0.096
C32Q	-0.944 ± 0.35
C32L	-1.05 ± 0.22
C32W	-0.861 ± 0.088
C32G	-1.02 ± 0.069

Variant	abundance fitness
K21Y	-0.099 ± 0.042
K21R	-0.025 ± 0.029
K21W	-0.133 ± 0.038
K21F	-0.03 ± 0.057
K21A	0.001 ± 0.028
K21V	-0.155 ± 0.037
K21D	-0.004 ± 0.041
K21H	-0.018 ± 0.049
K21L	-0.007 ± 0.032
K21M	-0.031 ± 0.041
K21Q	-0.03 ± 0.036
K21G	0.019 ± 0.029
K21N	-0.03 ± 0.033
K21E	0.008 ± 0.036
K21C	-0.036 ± 0.047
K21S	0.012 ± 0.044
F25K	-0.067 ± 0.041
F25W	-0.027 ± 0.035
F25S	-0.036 ± 0.038
F25P	-0.17 ± 0.036
F25C	-0.004 ± 0.051
F25G	-0.028 ± 0.032
F25A	0.033 ± 0.03
F25V	-0.009 ± 0.039

Variant	abundance fitness
F25M	0.048 ± 0.035
F25H	-0.109 ± 0.073
F25L	0.043 ± 0.03
F25I	-0.126 ± 0.43
F25D	-0.031 ± 0.046
F25E	-0.049 ± 0.035
N31Y	-0.134 ± 0.24
N31E	-0.058 ± 0.039
N31V	-0.077 ± 0.031
N31L	-0.067 ± 0.035
N31W	-0.054 ± 0.037
N31G	-0.026 ± 0.029
N31P	-0.018 ± 0.041
N31C	-0.1 ± 0.047
N31R	0.012 ± 0.029
N31S	-0.042 ± 0.034
N31Q	-0.036 ± 0.035
N31H	0.062 ± 0.19
N31F	-0.229 ± 0.07
N31A	-0.078 ± 0.03
Y36N	-0.172 ± 0.17
Y36W	-0.042 ± 0.033
Y36L	-0.181 ± 0.032
